Experimental data from the DeepSol protein solubility set.

Test: soluble on expression in E. coli; label from the status in PepcDB or PDB records

Row | Sequence | soluble on expression in E. coli
1 | PPNEQAVLNMYEGKRSELSQIYSNITDLEMQVSEHSLVINAIQPLDQSRKCFRMIGGVLVERTIKEVLPAVQRNKDGLEEVVRKLYETLEKKKKDLTEFEAKYKIRITKQEDNKEGGNKKEGNAQGVLVGAASSSQ | not soluble
2 | PPYTIVYFPVRGRAEAMRMLLADQGQSWKEEVVTIDTWMQGLLKPTCLYGQLPKFEDGDLTLYQSNAILRHLGRSLGLYGKNQREAAQMDMVNDGVEDLRGKYVTLIYTNYENGKNDYVKALPGHLKPFETLLSQNQGGKAFIVGDQISFADYNLLDLLLIHQVLAPGCLDNFPLLSAYVARLSARPKIKAFLSSPEHVNRPINGNGKQ | soluble
3 | PQFHLWKRPVVTAHIEGQPVEVLLDTGADDSIVTGIELGPHYTPKIVGGIGGFINTKEYKNVEVEVLGKRIKGTIMTGDTPINIFGRNLLTALGMSLNF | soluble
4 | PRRGPVAKRDVLPDPIYNSKLVTRLINKIMIDGKKSKAQKILYTAFDIIRERTGKDPMEVFEQALKNVMPVLEVRARRVGGANYQVPVEVRPDRRVSLGLRWLVQYARLRNEKTMEERLANEIMDAANNTGAAVKKREDTHKMAEANKAFAHYRW | soluble
5 | PRYTEVTEEQIIVKQIWGQLVFDRKEMEIVPIGKDDLKSSLRTFGNGGLFGYAGYFRNKKLGKYRMYVTRLKDLSLLTDRNGKKTVINLRQV | not soluble
6 | PSETFYRAKIQEQRERHARYHDTTYNLEPDIKSTPGGLRDIHTLSWVARRHFGATSLLEMSRYGFLTDAEYRELVECQDFLWRVRFALHIELRRYDNRLTFAHQAQVAENLGYVGEGNRGVEMMMKEFYRTLRRVAELNKMLLKLFDQAIINGGATENAEILDADFQRRGSLIEARKPALFQARPETILDMFLHIANDSTIEGVSPPTLRQLRTARRRLN | not soluble
7 | PSTLLKNYQDNNKMLVLALENEKSKVKEAQDIILQLRKECYYLTCQL | soluble
8 | PTANIMFDRRVVRGNTYAARILPADATQTQTKGPSPASTKKRTTRTLPPRTPEAVDGRRHIDIQTDVYLEELTDTVPEADTSTQTDAFLDRPPTPLFVPQKTGTDAITQIENGDLFDFDFEVEPILEVLVGKVLEQGLMEVLEEEELAAMRAHQEHFEQIRNAELVATQRMEAAERRKLEEKERRMQQERERVERERVVRQKVAASAFARGYLSGIVNTVFDRLVSSGYIYDPVMREVETAFMPWLKEQAIGYLARGVVARRVVDKLVEDAAAALAANRSTLADKAASTAATVDAWAERQAKMEAELQGKELEAVRRRPTFVLRELKPAVASADAVEAAAAELTAQAEEAANAKWEA | not soluble
9 | PVNTKRSNGTKRVEFPTTKKSMCIGNSTPNEQETFRAKVDEIWFRLTQKTDGTVMRDFLIEKAAEYFKQPEQPKQNAIEVISAIMAPQEEQTKSKADLYKFLAMFGPYETIMLKIASLLLISNNKGHWLTFDPQAEKNANNQRDSISGWFDQNEPNCLILKTPTGIRKIWNKPLIEATGQYLMDENGEKYDSWDKYFEMKPIETYLTAYPTFAPMHHHHHH | soluble
10 | PVPATPILQLEECCTHNNSATLSWKQPPLSTVPADGYILELDDGNGGQFREVYVGKETMCTVDGLHFNSTYNARVKAFNKTGVSPYSKTLVLQTSEG | soluble
11 | PVYAGGQVARGGQLGVLGNADIMDVPFTMTSYTEQLIEDQQAEDVGDVLLNDASVRQSSGYANASKIFVIRGLKLTTDDISYNGLYGVLPRQIISTDALERVEVFKGPNA | not soluble
12 | QAALNSLGTNSVAATTAAQKIDQVATQPLMSFGVTMATFAAQNYGAHQYERIITGVKQTMWLSGSFSVAAGLIEIIWGKQLVGFFVGHQDMAVLNL | not soluble
13 | QEAQANTESEKRRLDSVITHMSDGILATDRRGRVRIANDMALKMLGLAKEDVIGYYMLGVLNLENEFSLEEIQENSDSFLLDINEEEGIIARVNFSTIVQETGFVTGYIAVLHDVT | not soluble
14 | QGHMAWSAQQYLKFEDERTRPARDLLAQVPLERVLNGYDLGCGPGNSTELLTDRYGVNVITGIDSDDDMLEKAADRLPNTNFGKADLATWKPAQKADLLYANAVFQWVPDHLAVLSQLMDQLESGGVLAVQMPDNLQEPTHIAMHETADGGPWKDAFSGGGLRRKPLPPPSDYFNALSPKSSRVDVWHTVYNHPMKDADSIVEWVKGTGLRPYLAAAGEENREAFLADYTRRIAAAYPPMADGRLLLRFPRLFVVAVKK | soluble
15 | QILVVRNQVIFPYNGFELDVGRERSKKLIKALKNLKTKRLVLVTQKNSDQLNPEFDDIYHCGTLCDIDEIIEVPSEDGKTADYKIKGKGLQRVAITSFSDADLTKYDHHFLNSTLTENKALDKLLERIFPDKEDFAEILDSLNSFLELQELKKLSKVPKDIKRYDIITFKLASLIFKDITLQQAILEENDIEKRLQKIIGS | soluble
16 | QIQLVQSGPELKKPGETVRISCKASDYSFMTSGMQWVQQMPGKGLKWIGWLNTQSGVPEYAEDFKGRFAFSLETSATTAYLQINNLKNEDTATYFCATWGGNSAYWGQGTTLTVSSAKTTPPSVYPLAPGSAAQTNSMVTLGCLVKGYFPEPVTVTWNSGSLSSGVHTFPAVLQSDLYTLSSSVTVPSSTWPSETVTCNVAHPASSTKVDKKIVPRDC | soluble
17 | QKDFSWNASLLYAFNRNKVKHISVQPSLWDSRISMPTSYPMVGKPLYGIYAYKWAGLNENGDPQVYDAENNVTSGPARDYHALVYCGTTVPIHNASLTNVLRYKGFEFSAMLILDAGHKLRSSNIPSINMSNGRITSTAKGIVDRWTQPGDVTDVPRLLFSNDTENFNTHRTELYRYSDLFVYDASNIRLSNISLAYRVPAHWCKKISLSGARLQFNVENVATFAFDSKANYDLGGKVKPNYVWGLYLNF | not soluble

Row | Sequence | soluble on expression in E. coli
18 | QLHELANTFGQDLQRRYGEKVHKLTLHGGFSCPNRDGTIGKGGCTFCNVASFADEQEQFKSIHDQLTDRAGEVQRAKKYLAYFQAYTSTFAEVQVLKNMYEEALKAANIVGLCVGTRPDCVPDAVLDLLKGYVDDGYEVWLELGLQTANDKTLKRINRGHDFACYDAITRKARSLGIKVCTHLIIGLPGDTRDDNRQTLDKVLATGTDGIKLHPLHIVEGSTLAKAWRAGKLDAPEMDEYVDIACELIRLTPPEVVYHRVSATARQPTLLSPLWCEPRWLGLTNVGMALNNSGPQGS | not soluble
19 | QLTAAQELMIQQLVAAQLQCNKRSFSDQPKVTPWPLGADPQSRDARQQRFAHFTELAIISVQEIVDFAKQVPGFLQLGREDQIALLKASTIEIMLLETARRYNHETECITFLKDFTYSKDDFHRAGLQVEFINPIFEFSRAMRRLGLDDAEYALLIAINIFSADRPNVQEPGRVEALQQPYVEALLSYTRIKRPQDQLRFPRMLMKLVSLRTLSSVHSEQVFALRLQDKKLPPLLSEIWDVHE | not soluble
20 | QLTPFQQEVSRGLKKSVCHKENMLIHAVTGAGKTEMIYETLASILNQGGAVALASPRIDVCIELYKRLSRDFSCPISLLYGESEAYERSPLVIATTHQLLKFYRAFDLLIIDEVDAFPFVDNKMLYYAVDHCLKSDGVKVFLTATS | not soluble
21 | QLVLTQSSSASFSLGASAKLTCTLSSQHSTYTIEWYQQQPLKPPKYVMDLKQDGSHSTGDGIPDRFSGSSSGADRYLSISNIQPEDEAMYICGVGDTIKEQFVYVFGGGTKVTVLGEPKSTPTLTVFPPSSEELKENKATLVCLISNFSPSGVTVAWKANGTPITQGVDTSNPTKEGNKFMASSFLHLTSDQWRSHNSFTCQVTHEGDTVEKSLSPAECL | soluble
22 | QMLVNKARLANLNVSLEEKVMQRTVVLSEANHKLQQTVRQYEQSQQELRQTQQELTQAAKLALLGELSASINHEINQPLAALRTYTENSQRLLSMERYPMVADNLNKMLSLNETIAEVIARLKVFTRKTSHEPHNEVSILHDAVHNATSILSNKLIKQGVTLKVPTIDHEVRLAIHSVE | not soluble
23 | QNSPQDYLAVHNDARAQVGVGPMSWDANLASRAQNYANSRAGDCNLIHSGAGENLAKGGGDFTGRAAVQLWVSERPSYNYATNQCVGGKKCRHYTQVVWRNSVRLGCGRARCNNGWWFISCNYDPVGNWIGQRPY | soluble
24 | QNYSIERDVRLAPGEHFQIEGYDFYFSGLRDKDGPNYDGYIADFEITHDGKYINTLHAEKRFYRTAKSMMTEAAIDRGITRDLYIAMGERLDDNRSWAVRIYYKPFVR | not soluble
25 | QPAHSLWLDLTQGEEALLKGMKEMHRRNARLALKRVALSVEGEEAFAEFYRLFTETNRRARLLQHDEAYYRAVLKEMNQPLGEAFLALARKDGEALAAGLFVAFAGKVAYLYGGSTRKHPEAKAPMGMHLAAIRHGMARGYRVYDLWGIPKNPRGSHAEGIHRFKEGFGGQRVQFPA | not soluble
26 | QQEVYGMMPRDETDSKTASASPWKSARLMVHTVATFNSIKER | soluble
27 | QRSYERDFPHHDRICIVKTHGTRQSQEGDKPEELDFSQVSGGVAPAIQEEIPGVELATRTTLYGTSKMILEDNKTYETKTLLAEPAFLDMFGVELIAGVRDSALRDNMTCLISESLARKMGGDVLGKRLRPAESKSDRAITIGGVFEDLPHNSSIQADMLLPITWMPAESLNNWIGNDRYIAYVRLRPGVSPESLDEALLEMQKRHQDMEVFRKAGVELHYSLTPFNRLRLEDPTLVNMLRIQQ | soluble
28 | QSEPELKLESVVIVSRHGVRAPTKATQLMQDVTPDAWPTWPVKLGWLTPRGGELIAYLGHYQRQRLVADGLLAKKGCPQSGQVAIIADVDERTRKTGEAFAAGLAPDCAITVHTQTDTSSPDPLFNPLKTGVCQLDNANVTDAILSRAGGSIADFTGHRQTAFRELERVLNFPQSNLCLKREKQDESCSLTQALPSELKVSADNVSLTGAVSLASMLTEIFLLQQAQGMPEPGWGRITDSHQWNTLLSLHNAQFYLLQRTPEVARSRATPLLDLIKTALTPHPPQKQAYGVTLPTSVLFIAGHDTNLANLGGALELNWTLPGQPDNTPPGGELVFERWRRLSDNSQWIQVSLVFQTLQQMRDKTPLSLNTPPGEVKLTLAGCEERNAQGMCSLAGFTQIVNEARIPACSL | soluble
29 | QSSAQRHADLNTLIGHTEPVANIAQDLYSSLSLADTEASASFVRGTNDNYVEYIQKAALLVTQTDGDIANIATQLPVYTGLVETARANNRQGHPVGVAYMSEASTLMQESILPAASQLYLNAAEQVSTAQRNLARPQ | not soluble
30 | QTFSEEDHAILASYFPIVDGIAALIGEHCEIVLHSLEFLENSAIYIANGHNTDRKIGSPLTDKALKSLHQMQTDSVSKPYFTRLKGGILMKSITIAIRNSKQHVIGFICININLDVPTAQFLTSFIPRTQDDEN | not soluble
31 | QTKIYESYKLPDYLKDKIKNNNHAEMDENDLDNKIFYKPNVAAHSQFIDYKYNGNHSVEIKFETDAIEVYEIRPVSIATITHVTIPNDCASNNSNSNECVLIIHVWNNSKFVGSNFSCSIACTNKETDQLASHINPIAPVRAFIGPNKNYAFYFIIKFLINKEITTLCKAIVKDSNGKECSIEEFELQSKESVHIVESEVDETTDQVVVEHHTQSPDIKNPDEYVCKCTINLLCYV | soluble
32 | QVQLVASGGGSVQAGGSLRLSCAASGYTFSSYPMGWYRQAPGKECELSARIFSDGSANYADSVKGRFTISRDNAANTAYLQMDSLKPEDTAVYYCAAGPGSGKLVVAGRTCYGPNYWGQGTQVTVSS | soluble
33 | QYAIERHFYSQDFSYISSKFNAIENELKSSLEDVFKQANNSTLYMWVFEGKLNVYQNSSLTIPQNRAYSISSPQVLNHERAIEWSEDSLNIRAFAFQAGEYQVVLGMSINHHILFLDKLD | not soluble
